From patent US20220249563A1 (LEGEND BIOTECH IRELAND, published 2022)
Substitutions are numbered along the chain they refer to.

T1: extracellular domain of human DLL3 protein (aa27-466) having an N-terminal FLAG tag (AdipoGen, AG-40B-0151) (human, UniProt Q9NYJ7 27-466)
T1 construct: range 27-466; also called DLL3 ECD protein
T1 sequence (looked up): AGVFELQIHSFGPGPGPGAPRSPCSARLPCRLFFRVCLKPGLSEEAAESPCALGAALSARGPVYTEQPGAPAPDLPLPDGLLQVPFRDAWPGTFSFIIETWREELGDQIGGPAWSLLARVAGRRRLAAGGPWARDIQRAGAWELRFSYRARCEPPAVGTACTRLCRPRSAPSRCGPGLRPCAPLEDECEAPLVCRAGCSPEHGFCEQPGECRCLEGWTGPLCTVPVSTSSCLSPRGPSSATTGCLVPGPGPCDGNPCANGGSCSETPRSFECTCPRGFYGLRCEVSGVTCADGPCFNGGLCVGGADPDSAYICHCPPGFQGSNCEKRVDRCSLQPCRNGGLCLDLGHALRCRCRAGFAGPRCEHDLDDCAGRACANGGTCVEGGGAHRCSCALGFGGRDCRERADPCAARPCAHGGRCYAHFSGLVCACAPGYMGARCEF

B1: AS69527 (VHH)
VHH: EVQLAESGGGSVQAGGSLRLSCVASRYTFSSTCMAWFRQAPGKEREEVAAIYTDDGSTWYADSVKGRFTISRDNAKNTVYLQMNSLKPEDTAMYYCAARRWACPRVGSWHEFAYWGQGTQVTVSS
notes: camel sdAb; crude E. coli supernatant
B2: AS68280 (VHH)
VHH: QVQLVESGGGSVHPGGSLRLSCAASGSTYSSNYLGWFRQAPGKGRDWVAAISTGDGATAYADSVKGRFTISQDNAKNTVYLQMNSLKLEDSAMYYCAAARGRFIDWTKATQYDYWGQGTQVTVSS
notes: as for B1
B3: AS68355 (VHH)
VHH: QMQLVESGGDSVQAGGSLRLSCAASGYTYSGVCMGWFRQAPGKEREGVAAIDSDGSTSYADSVKGRFTISKDNAKNTLYLQMNSLKPEDTAMYYCAAAIVGGFNAYCSGGYVLDFGAWGQGTQVTVSS
notes: as for B1
B4: AS75376 (VHH)
VHH: QVQLKESGGGSVQAGGSLRLSCAASGYTYSSHSMGWFRQAPGKEREGVAVIYTGDGSTYYADSVKGRFTISQDNAKNTVYLQMNSLKPEDTAMYYCAADPNPDYMLPFRPSRRSWWGQGTQVTVSS
notes: as for B1
B5: AS75387 (VHH)
VHH: QVHLVESGGGSVQAGGSLRLSCAASGYPYSSPCMAWFRQAPGKEREGVLVAYTGGDIQYLTDSVKGRFTISRDNAKNTVYLQMNSLKPEDTAMYYCAADLRLPRAGGCAYSYWGQGTQVTVSS
notes: as for B1
B6: AS75695 (VHH)
VHH: QVRLVESGGGSVQAGGSLRLSCVASGYTVSAYCMGWFRQVLGKGRERIAFIDAGGATIYADPVKGRFTISKDNAKNTLYLQMNSLKPEDTAMYYCVADRRGRVRRCEYNAWGQGTQVTVSS
notes: as for B1
B7: AS76169 (VHH)
VHH: QVHLMESGGGSVQAGGSLRLSCAASGYIYSSFCMGWFRQAPGKEREVVAYIRDNIMTSYTDSVKGRFTISKDNAKRTLYLQMNGLKPEDTGMYYCAVDRGGYANSCAVAARYDYWGRGTQVTVSS
notes: as for B1
B8: AS63937 (VHH)
VHH: QVKLVESGGGSVQAGGSLRLSCAASGSTISSRPMAWFRQAPGKEREGVACIHTGLGRTYYADSVKGRFTISQDNAKNTVYLQVNSLKPEDTAMYYCAADSRRPCMVAAGYTYWGQGTQVTVSS
notes: as for B1
B9: AS63956 (VHH)
VHH: QVHLVESGGGLVQAGGSLRLSCAASGFTYSNCCMRWYRQAPGKARELVSLINSSGGTYYADSVRGRFTISKDNAKNTLYLQMNSLKPEDTAMYYCAAYQAKYCSGPCAPPTDWGQGTQVTVSS
notes: as for B1
B10: AS63965 (VHH)
VHH: QVQLVESGGGSVQAGGSLRLSCVASGYSSGSCRMGWYRQAPGKERELVSKVISDGTTVYADSVKGRFTLSQGNAKNTVYLQMSSLLPEDTAMYYCNAWCREYPGGILNNGWGQGTQVTVSS
notes: as for B1
B11: AS63993 (VHH)
VHH: QVKLVESGGGLVQAGGSLRLSCTVSGFTFDDLVMAWFRQAPGKERQLVSLVATAGNSVYADSVKGRFTLSRDNAHSTAYLQMNGLKPEDTAMYYCAARTDSEHAFKFWGQGTQVTVSS
notes: as for B1
B12: AS63987 (VHH)
VHH: QVRLVESGGGSVQAGGSLRLSCEATGYRNCMAWFRQAPGKEREGVAVIYTPSGITDYASSVKGRFTISQNNARNTQYLQMNSLKPEDTAMYYCAADRPFVCNIANMRRSSNWGRGTQVTVSS
notes: as for B1
B13: AS64006 (VHH)
VHH: QVHLVESGGGSVQAGGSLRLSCEVSGYTGDTTYIGWFRQAPGKEREGVALIYTSGTSEYYADSVKGRFIISRDNAKNTVYLQMNSLKPEDTAMYYCGARSRTMMYWGQGTQVTVSS
notes: as for B1
B14: AS64060 (VHH)
VHH: QVKLVESGGGSVQAGGSLRLSCAASGSTYCTYRMSWFRQAPGKEREFVAVIDSGGSTSYADSVKGRFTISRDNAKNTVYLQMNSLKPEDTAMYYCKTDPTIGCPQTYRYNYWGQGTQVTVSS
notes: as for B1
B15: AS64071 (VHH)
VHH: QVHLMESGGGSVQAGGSLRLSCVASGNTYRLNSMGWFRQAPGKEREGVAFIVMIRGTTYYGASVKGRFTISQDNAQTTVYLQMSSLKPEDTAMYYCAASTKDQFYVFNPIGYDSWGQGTQVTVSS
notes: as for B1
B16: AS64380VH7 HCAb (Fc fusion, not shown: a dimerising Fc or GST)
chain: EVQLVESGGGLVQPGGSLRLSCAASGNTYSSNYMGWFRQAPGKGREEVAVIYTRGGHTYYVDSVRGRFTISQDNAKNSVYLQMNSLRAEDTAMYYCAASSRHRLGLNNPRDYDYWGQGTLVTVSS
notes: humanized sdAb fused with human IgG1 hinge and Fc (humanized HCAb), crude HEK293 medium
B17: AS64380 HCAb (Fc fusion, not shown: a dimerising Fc or GST)
chain: B16 chain with L11S, P14A, R19T, A23E, G44E, S78T, R87K, A88P, L120Q
notes: camel sdAb fused with human IgG1 hinge and Fc (chimeric HCAb), crude HEK293 medium
B18: AS64380VH4 HCAb (Fc fusion, not shown: a dimerising Fc or GST)
chain: B16 chain with R45L, Q72R, V79L, M93V
notes: as for B16
B19: AS64380VH5 HCAb (Fc fusion, not shown: a dimerising Fc or GST)
chain: B16 chain with R45L, V79L, M93V
notes: as for B16
B20: AS64380VH6 HCAb (Fc fusion, not shown: a dimerising Fc or GST)
chain: B16 chain with R45L
notes: as for B16
B21: AS64511VH6 HCAb (Fc fusion, not shown: a dimerising Fc or GST)
chain: EVQLVESGGGLVQPGGSLRLSCAASRATYSTNYISWFRQAPGKGREAVATITTGDGETAYADSVKGRFTISRDNAKNSVYLQMNSLRAEDTAMYYCAANLRIGGDWFDGRDFRAWGQGTLVTVSS
notes: as for B16
B22: AS64511 HCAb (Fc fusion, not shown: a dimerising Fc or GST)
chain: B21 chain with E1Q, L11S, P14A, G44E, S78T, R87K, A88P, L120Q
notes: as for B17
B23: AS64511VH4 HCAb (Fc fusion, not shown: a dimerising Fc or GST)
chain: B21 chain with R45L, V79L, M93V
notes: as for B16
B24: AS64511VH5 HCAb (Fc fusion, not shown: a dimerising Fc or GST)
chain: B21 chain with R45L
notes: as for B16
B25: AS63997 HCAb (Fc fusion, not shown: a dimerising Fc or GST)
chain: QVRLVESGGGSVQAGGSLRLSCAGSFSGYGVSTMAWFRQAPGKEREGVAAITVGSGNTYYADSVKGRFTISRDNAKRTVFLQMNSLKPEDTAMYYCAVGYLSGGSWDVPGRYNYWGQGTQVTVSS
notes: as for B17
B26: AS63997VH4 HCAb (Fc fusion, not shown: a dimerising Fc or GST)
chain: QVQLVESGGGVVQPGGSLRLSCAASFSGYGVSTMAWFRQAPGKGLEGVAAITVGSGNTYYADSVKGRFTISRDNSKNTLYLQMNSLRAEDTAVYYCAVGYLSGGSWDVPGRYNYWGQGTLVTVSS
notes: as for B16
B27: AS63997VH5 HCAb (Fc fusion, not shown: a dimerising Fc or GST)
chain: B26 chain with L79V, V93M
notes: as for B16
B28: AS63997VH6 HCAb (Fc fusion, not shown: a dimerising Fc or GST)
chain: B26 chain with L45R, L79V, V93M
notes: as for B16

biological target: T1, extracellular domain of human DLL3 …; assay: ELISA (protein), FACS (cells)

B1: binds.
B2: binds.
B3: binds.
B4: binds.
B5: binds.
B6: binds.
B7: binds.
B8: binds.
B9: binds.
B10: binds.
B11: binds.
B12: binds.
B13: binds.
B14: binds.
B15: binds.

biological target: T1, extracellular domain of human DLL3 …; assay: SPR (Biacore), HCAb captured by anti-human Fc, human DLL3 as analyte, 1:1 fit
From the text: The camel and humanized sdAb sequences were fused with human IgG1 hinge and Fc, resulting the chimeric and humanized HCAb sequences. The DNAs encoding these HCAbs were synthesized and inserted into pTT5 vector. HCAb expression plasmids were used to transfect HEK293 cells. Crude HCAb proteins secreted to the medium were subjected to SPR affinity measurement as follows: briefly, capturing antibody anti-human Fc pAb (GE healthcare) was immobilized on a Biacore™ CM5 chip to approximately 6,000 RU using EDC-activated amine coupling chemistry. HCAb of interest was captured for 300 seconds onto the sensorchip surface. Human DLL3 (AdipoGen, AG-40B-0151) was flowed over the sensorchip surface at a series of increasing concentrations. Association and dissociation phases were monitored. Captured antibody and antigen were removed between cycles using 10 mM Glycine-HCl, pH 2.0 buffer in order to ensure a fresh binding surface for the antigen. The resulting sensorgrams were fit globally using a 1:1 binding model in order to calculate on- and off-rates (ka and kd, respectively), as well as affinities (KD).

Going from B16 to B17, the Kd falls from 45 nM to 8.4 nM (5.4-fold).

Going from B18 to B19, the Kd rises from 14 nM to 26 nM (1.9-fold). The first binds more tightly here.

Going from B20 to B21, the Kd falls from 17 nM to 3.4 nM (5-fold). The second binds more tightly here.

Going from B22 to B23, the Kd rises from 3 nM to 6 nM (2-fold). The first binds more tightly here.

Compared with B24, B25 is 5.5-fold higher in Kd: 2.9 nM for the first, 16 nM for the second. The first binds more tightly here.

Compared with B26, B27 is 1.8-fold higher in Kd: 21 nM for the first, 37 nM for the second.

B28 was tested, and the Kd was 33 nM.

Going from B16 to B17, the koff rises from 0.0015 s⁻¹ to 0.0056 s⁻¹ (3.7-fold).

Compared with B18, B19 is 2.9-fold lower in koff: 0.0044 s⁻¹ for the first, 0.0015 s⁻¹ for the second.

First: B20
Second: B21
The koff of the first is 3.1-fold higher: 0.0015 s⁻¹ for the first, 0.00048 s⁻¹ for the second.

Compared with B22, B23 is 2.3-fold higher in koff: 0.0004 s⁻¹ for the first, 0.00094 s⁻¹ for the second.

Compared with B24, B25 is 14-fold higher in koff: 0.00047 s⁻¹ for the first, 0.0064 s⁻¹ for the second.

B26 and B27 are within 1.5-fold of each other in koff: 0.018 s⁻¹ for the first, 0.021 s⁻¹ for the second.

B28 showed a koff of 0.06 s⁻¹.

Going from B16 to B17, the kon rises from 32000 M⁻¹ s⁻¹ to 670000 M⁻¹ s⁻¹ (21-fold).

Going from B18 to B19, the kon falls from 310000 M⁻¹ s⁻¹ to 59000 M⁻¹ s⁻¹ (5.3-fold).

First: B20
Second: B21
The kon of the first is 1.6-fold lower: 88000 M⁻¹ s⁻¹ for the first, 140000 M⁻¹ s⁻¹ for the second.

B22 and B23 are within 1.5-fold of each other in kon: 130000 M⁻¹ s⁻¹ for the first, 160000 M⁻¹ s⁻¹ for the second.

Compared with B24, B25 is 2.4-fold higher in kon: 160000 M⁻¹ s⁻¹ for the first, 390000 M⁻¹ s⁻¹ for the second.

B26 and B27 are within 1.5-fold of each other in kon: 840000 M⁻¹ s⁻¹ for the first, 580000 M⁻¹ s⁻¹ for the second.

Work on B28 yielded a kon of 1.8e+06 M⁻¹ s⁻¹.
